The nature of the series: Thermal aggregation profiles and Tagg by SDS-PAGE. The format is physicochemical. Conditions: heat treated separately 30 minutes, 42 to 64° C.

Experimental: After incubation, reactions were stopped by transferring the samples to ice for 10 minutes prior to centrifugation at 18,000 r.p.m. for 20 minutes at 4° C. in a Beckman Coulter (Fullerton, Calif., USA) centrifuge (rotor: F12×8.2). The supernatants (3 or 5 μl) were then analyzed by 10% NEXT-GEL SDS-PAGE (Amresco, Solon, Ohio, USA). The gels were illuminated on a transilluminator at 365 nm followed by Coomassie blue staining. Coomassie-stained protein bands corresponding to Ffold were integrated using ImageJ (see the website at rsbweb.nih.gov/ij/) and plotted against the temperature.
To determine the Tagg at which 50% of proteins were aggregated, the thermal aggregation profile data were fit to the following sigmoid function:
Ffold=1−(1/(1+e^(Tagg-T/c))
where Ffold is the normalized fluorescence intensity at temperature T, and c is the Hill slope factor.
Ffold was then determined by SDS-PAGE. For this experiment, equal amounts of the three proteins were mixed to avoid variations in buffer composition and protein concentrations.
Due to the oligomeric quaternary structure of these proteins, experiments were performed separately to avoid the formation of heterogeneous protein complexes.

B1: GK: tetrameric glycerol kinase from E. coli (protein, UniProt P0A6F3 2-502, looked up)
Glycerol kinase: TEKKYIVALDQGTTSSRAVVMDHDANIISVSQREFEQIYPKPGWVEHDPMEIWATQSSTLVEVLAKADISSDQIAAIGITNQRETTIVWEKETGKPIYNAIVWQCRRTAEICEHLKRDGLEDYIRSNTGLVIDPYFSGTKVKWILDHVEGSRERARRGELLFGTVDTWLIWKMTQGRVHVTDYTNASRTMLFNIHTLDWDDKMLEVLDIPREMLPEVRRSSEVYGQTNIGGKGGTRIPISGIAGDQQAALFGQLCVKEGMAKNTYGTGCFMLMNTGEKAVKSENGLLTTIACGPTGEVNYALEGAVFMAGASIQWLRDEMKLINDAYDSEYFATKVQNTNGVYVVPAFTGLGAPYWDPYARGAIFGLTRGVNANHIIRATLESIAYQTRDVLEAMQADSGIRLHALRVDGGAVANNFLMQFQSDILGTRVERPEVREVTALGAAYLAGLAVGFWQNLDELQEKAVIEREFRPGIETTERNYRYAGWKKAVKRAMAWEEHDE
The molecule B1 gave a Tagg of 50.4±0.3 °C.

Values taken from US20110129935A1, “PROTEIN STABILITY ASSAY USING A FLUORESCENT REPORTER OF PROTEIN FOLDING” (James Cook University, priority 2008, published 2011).
